In patent US5716934A, “Eck receptor ligands” (Amgen Inc., priority 1995, dated 1998):

How the values were obtained:
[1] = system: extracellular domain of the kit receptor; test: BIAcore binding to surfaces activated with kit receptor extracellular domain
Description: SDS-PAGE analysis of the fractions from this column confirmed that EBP was co-eluted with the receptor binding activity.

EGF receptor = EGF receptor phosphorylation in LIM 2405 cells treated with EBP; assay type: cell-based, human
[2] = system: immobilized soluble extracellular domain of eck; test: Stability of eck binding activity of formulated EBP (BIAcore); assay type: physicochemical, human
Method: FIG. 7. Binding of CHO-derived EBP in various detergent formulations to immobilized eck receptor as measured by BIAcore. Purified EBP was diluted to 100 μg/ml in PBS in the presence or absence of detergent and incubated for 2 hrs. at 3° C. Protein samples were diluted to the concentrations indicated in the figure and tested for eck receptor binding.
Measuring the ability of EBP to bind to the immobilized soluble extracellular domain of eck using BIAcore, it was determined that dilute solutions of purified EBP rapidly lost the ability to bind to the eck receptor unless formulated with a protective agent such as a detergent. Recombinant CHO EBP diluted into PBS to 100 μg/ml and incubated for 2 hours at […] lost approximately 50% of its eck binding activity. […] (see FIG. 7).

[3] = system: bone marrow suspensions from BDF mice; test: Murine bone marrow colony formation (hematopoiesis); assay type: cell-based, mouse
Method: Unfractionated bone marrow suspensions from BDF mice were plated into serum free culture medium (Iscove's modified Dulbecco's medium) in 0.3% agarose and incubated at 37° C., 5% CO2 for ten days at a cell concentration of 1×10^5 /ml in 96 well plates. Total volume per […] was 50 μl . EBP and other growth factors were added in the amounts indicated and colonies were scored at the tenth day of incubation.

colon crypt cells = test: Colon crypt assay; assay type: cell-based, mouse; settings: bFGF 60 ng/ml, EBP 500 ng/ml
Method: Colons from five (BDF) mice were removed and crypts isolated using a non enzymatic (EDTA) extraction method. Briefly, colons are washed and allowed to sit for 20 min. in a solution of PBS containing 0.04% sodium hypochlorite. Crypts are isolated by incubating the tissue for 1 hour at 37° C. in a solution of PBS containing 3 mM EDTA and 0.5 mM DTT. Crypts are then subjected to pancreatin digestion (0.2% in PBS) for 90 min. at 37° C. in order to obtain a single cell suspension. Cells are washed in PBS, counted and viability determined by trypan blue exclusion (85% in this experiment). Cells are then plated in a top layer of 0.37% Sigma low melt agar onto a bottom layer of 0.5% agar. The RPMI media used in the agar includes the presence of 1×ITS (insulin, transferrin, and selenium, Gibco). Incubations were done in the presence of 1% fetal calf serum (FCS) and the indicated growth factors at the following concentration: TGFα, 50 ng/ml; bFGF, 60 ng/ml; EBP, 500 ng/ml. Control incubations lacked growth factors and/or FCS. Each of the various culture conditions was performed in triplicate and scored every several days.

hepatocytes = test: 3H-thymidine incorporation in primary hepatocyte cultures; assay type: cell-based; settings: EBP at 20 ng/ml, aFGF at 20 ng/ml, 24 to 48 hours, serum-free
Method: Hepatocytes were isolated by the in situ two step collagenase perfusion technique described by Seglen (Methods in Toxicol., Vol. 1A, 231-243 (1993). Briefly, the perfused livers were dispersed in ice cold Hank's buffer, filtered through a nylon mesh, and hepatocytes separated from nonparenchymal cells by repeated centrifugation at 50×g. The hepatocytes were determined to be greater than 85% viable by trypan blue exclusion. The hepatocytes were cultured on plates coated with rat tail collagen and plated in Williams E containing 5% FCS, 10^-7 M insulin, 10^-8 M dexamethason, glutamine, penicillin and streptomycin.
Cells were allowed to attach for 3-4 hours in serum containing media and then transferred to serum-free media. The appropriate concentrations of EBP or other growth factors were added and the cells were incubated for 24 to 48 hours in the presence of ^3 H-thymidine. After incubation, the extent of ^3 H-thymidine incorporation into cells was determined. The growth factors tested were keratinocyte growth factor (KGF) at 10 ng/ml, acidic FGF (aFGF) at 20 ng/ml, and EBP at 20 ng/ml. […] In this particular experiment, the serum free value was unusually high (about 3-fold).

B1: EBP: eck receptor binding protein, polypeptide ligand of the eck receptor (B61 gene product, SEQ. ID. NO. 1); source form not specified at place (protein)
chain: MEFLWAPLLGLCCSLAAADRHTVFWNSSNPKFRNEDYTIHVQLNDYVDIICPHYEDHSVADAAMEQYILYLVEHEEYQLCQPQSKDQVRWQCNRPSAKHGPEKLSEKFQRFTPFTLGKEFKEGHSYYYISKPIHQHEDRCLRLKVTVSGKITHSPQAHVNPQEKRLAADDPEVRVLHSIGHSAAPRLFPLAWTVLLLPLLLLQTP
- binding to BIAcore surfaces activated with the extracellular domain of the kit receptor [1]: did not bind
- phosphorylation of the EGF receptor (EGF receptor): does not result in spurious phosphorylation
- loss of eck binding activity when formulated in detergent ([2]; 1 mM CHAPS, 0.1% NP-40, 0.1% tween 20, 0.1% triton-X 100, or 0.1% tween 80): loss of activity can be avoided
- stability of eck binding activity ([2]; 2-5 mg/ml in detergent solutions, 3° C.): stable for at least one week
- stability of eck binding activity ([2]; 10-500 μg/ml, stored at -20° C. or multiple freeze thaw cycles): will lose activity
- loss of eck binding activity when incubated with protein carriers ([2]; diluted EBP with carriers such as fetal calf serum): can also be avoided
- stimulation of CFU-M or BFU-E/CFU-E ([3]; EBP alone): no stimulation
- potentiation of murine IL-3 dependent CFU-C formation compared to IL-3 alone ([3]; EBP at 1 μg/ml with murine IL-3, colonies scored day 10): about 2 fold
- colon crypt cell clusters, overall observation (colon crypt cells): occasional large clusters
- amount of 3H-thymidine incorporation stimulated (hepatocytes): about the same as that induced by aFGF
